Patent US20180003631A1

Columns and labels:
[1] = molecular target: rNav1.2a/Kv2.1 VSD IV chimera containing the R1629A/L1630A substitutions (rat), P15387; assay: cell-based or functional assay
[2] = molecular target: T1, rNav1.2a/Kv2.1 VSD IV paddle chimera (WT paddle) (rat), P15387; assay: cell-based or functional assay
T1 chain: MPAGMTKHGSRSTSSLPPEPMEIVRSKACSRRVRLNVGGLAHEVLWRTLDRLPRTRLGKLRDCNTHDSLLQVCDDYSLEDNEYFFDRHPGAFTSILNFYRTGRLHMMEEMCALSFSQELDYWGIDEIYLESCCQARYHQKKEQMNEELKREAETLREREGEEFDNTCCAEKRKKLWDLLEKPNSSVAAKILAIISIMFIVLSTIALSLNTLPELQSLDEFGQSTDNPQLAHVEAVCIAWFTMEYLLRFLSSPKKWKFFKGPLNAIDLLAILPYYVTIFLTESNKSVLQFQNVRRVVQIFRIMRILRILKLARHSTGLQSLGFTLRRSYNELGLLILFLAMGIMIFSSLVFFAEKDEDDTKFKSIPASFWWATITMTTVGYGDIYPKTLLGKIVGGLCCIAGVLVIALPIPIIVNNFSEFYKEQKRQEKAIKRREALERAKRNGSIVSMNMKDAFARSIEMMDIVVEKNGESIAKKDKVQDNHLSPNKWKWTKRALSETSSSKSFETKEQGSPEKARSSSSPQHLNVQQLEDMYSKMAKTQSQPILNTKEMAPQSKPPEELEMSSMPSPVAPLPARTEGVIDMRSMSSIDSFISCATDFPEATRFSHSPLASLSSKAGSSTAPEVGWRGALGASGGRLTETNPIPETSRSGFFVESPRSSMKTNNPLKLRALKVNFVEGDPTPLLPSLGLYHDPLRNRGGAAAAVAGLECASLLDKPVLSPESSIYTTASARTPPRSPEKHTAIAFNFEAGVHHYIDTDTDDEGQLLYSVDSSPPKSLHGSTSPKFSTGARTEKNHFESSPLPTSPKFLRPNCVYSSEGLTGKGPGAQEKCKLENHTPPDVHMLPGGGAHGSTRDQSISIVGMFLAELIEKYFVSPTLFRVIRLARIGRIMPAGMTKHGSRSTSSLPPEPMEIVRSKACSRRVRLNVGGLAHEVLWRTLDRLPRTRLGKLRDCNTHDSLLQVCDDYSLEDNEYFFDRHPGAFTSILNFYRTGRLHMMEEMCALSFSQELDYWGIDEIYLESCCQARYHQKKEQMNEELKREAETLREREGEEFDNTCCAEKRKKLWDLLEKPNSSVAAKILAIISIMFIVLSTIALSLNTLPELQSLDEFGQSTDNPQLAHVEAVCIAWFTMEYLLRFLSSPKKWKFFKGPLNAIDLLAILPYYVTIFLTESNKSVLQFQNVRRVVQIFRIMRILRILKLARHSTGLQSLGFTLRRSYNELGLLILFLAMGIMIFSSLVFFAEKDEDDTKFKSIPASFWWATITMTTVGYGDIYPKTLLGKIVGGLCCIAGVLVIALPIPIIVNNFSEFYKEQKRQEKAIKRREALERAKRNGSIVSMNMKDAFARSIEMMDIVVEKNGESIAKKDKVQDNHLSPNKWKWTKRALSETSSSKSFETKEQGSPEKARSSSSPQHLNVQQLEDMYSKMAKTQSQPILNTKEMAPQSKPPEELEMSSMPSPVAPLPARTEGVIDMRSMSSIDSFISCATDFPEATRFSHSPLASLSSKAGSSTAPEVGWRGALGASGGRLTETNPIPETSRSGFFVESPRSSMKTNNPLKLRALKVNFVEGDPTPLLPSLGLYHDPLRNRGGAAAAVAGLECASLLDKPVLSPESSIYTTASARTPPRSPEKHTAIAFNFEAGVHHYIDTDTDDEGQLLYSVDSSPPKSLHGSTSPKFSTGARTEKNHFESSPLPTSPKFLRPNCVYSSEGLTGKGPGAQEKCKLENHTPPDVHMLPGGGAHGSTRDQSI

[3] = molecular target: T2, isolated rNav1.2a VSD IV paddle peptide with R1629A/L1630A substitutions and C-terminal K-linked biotin (rat); assay: site 1 of heterogeneous ligand model (ka1)
[4] = molecular target: T2, isolated rNav1.2a VSD IV paddle peptide …; assay: site 1 of heterogeneous ligand model (kd1)
[5] = molecular target: T2, isolated rNav1.2a VSD IV paddle peptide …; assay: site 2 of heterogeneous ligand model (ka2)
[6] = molecular target: T2, isolated rNav1.2a VSD IV paddle peptide …; assay: site 2 of heterogeneous ligand model (kd2)
[7] = molecular target: T2, isolated rNav1.2a VSD IV paddle peptide …; assay: SPR (Biacore T200), heterogeneous ligand model, site 1
[8] = molecular target: T2, isolated rNav1.2a VSD IV paddle peptide …; assay: SPR (Biacore T200), heterogeneous ligand model, site 2
[9] = molecular target: T2, isolated rNav1.2a VSD IV paddle peptide …; assay: SPR (Biacore T200), heterogeneous ligand model, site 1, n=3, mean±SD; site 1, high affinity KD1, n=3
[10] = molecular target: T2, isolated rNav1.2a VSD IV paddle peptide …; assay: SPR (Biacore T200), heterogeneous ligand model, site 2, n=3, mean±SD; site 2, lower affinity KD2, n=3

B1: AaHII from Androctonus australis hector, P01484 20-83 (peptide)
chain: VKDGYIVDDVNCTYFCGRNAYCNEECTKLKGESGYCQWASPYGNACYCYKLPDHVRTKGPGRCH
modifications: not checked
apparent KD (from K+ current inhibition, two-electrode voltage clamp, Xenopus oocytes) [1]: 193 nM | apparent KD (from K+ current inhibition, two-electrode voltage clamp, Xenopus oocytes) [2]: 1010 nM | kon [3]: 2330 M⁻¹ s⁻¹ | koff [4]: 0.000979 s⁻¹ | kon [5]: 38200 M⁻¹ s⁻¹ | koff [6]: 0.0281 s⁻¹ | RUmax1 [7]: 135 RU | RUmax2 [8]: 23 RU | Kd [9]: 479 nM | Kd [10]: 747 nM
